{"source": "patent US20230042729A1", "about": "“PEPTIDE CONSTRUCTS AND COMPOSITIONS” (DIET4LIFE APS, priority 2019, published 2023)", "key": {"[1]": {"target": "T1, commercial carboxypeptidase inhibitor (CPI) from Potato tuber (UniProt P01075)", "T1 sequence": "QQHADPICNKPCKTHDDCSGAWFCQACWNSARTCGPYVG"}, "[2]": {"target": "T2, trypsin inhibitor T9253 from chicken egg white, P01005", "T2 chain": "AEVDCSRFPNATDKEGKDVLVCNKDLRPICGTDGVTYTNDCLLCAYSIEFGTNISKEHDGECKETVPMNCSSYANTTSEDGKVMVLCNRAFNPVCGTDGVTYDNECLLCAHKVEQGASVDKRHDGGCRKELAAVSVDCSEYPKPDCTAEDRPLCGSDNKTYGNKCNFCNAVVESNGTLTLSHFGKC"}, "[3]": {"target": "T3, trypsin inhibitor, T9128 from soybean, P01070", "T3 chain": "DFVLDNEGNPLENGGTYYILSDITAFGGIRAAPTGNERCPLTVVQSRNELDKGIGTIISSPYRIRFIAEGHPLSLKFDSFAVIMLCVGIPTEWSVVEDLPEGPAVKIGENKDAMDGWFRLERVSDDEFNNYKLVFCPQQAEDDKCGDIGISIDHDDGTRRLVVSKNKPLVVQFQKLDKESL"}}}
{"molecule": "carboxypeptidase in porcine pancreatin", "values": [{"measurement": "carboxypeptidase activity (Hippuryl-L-phenylalanine substrate, slope of kinetic absorbance)", "setting": "[1]", "result": "carboxypeptidase activity, which was efficiently suppressed by a commercial carboxypeptidase inhibitor (CPI) from Potato tuber"}]}
{"molecule": "trypsin in porcine pancreatin (protein) IVGGYTCAANSIPYQVSLNSGSHFCGGSLINSQWVVSAAHCYKSRIQVRLGEHNIDVLEGNEQFINAAKIITHPNFNGNTLDNDIMLIKLSSPATLNSRVATVSLPRSCAAAGTECLISGWGNTKSSGSSYPSLLQCLKAPVLSDSSCKSSYPGQITGNMICVGFLEGGKDSCQGDSGGPVVCNGQLQGIVSWGYGCAQKNKPGVYTKVCNYVNWIQQTIAAN", "values": [{"measurement": "trypsin activity (conversion of L-BAPA, slope of kinetic absorbance)", "setting": "[2]", "result": "Intestinal and pancreatic trypsin activity was inhibited in a dose-dependent manner by two specific trypsin inhibitors from soybean and chicken egg white, respectively"}, {"measurement": "trypsin activity (conversion of L-BAPA, slope of kinetic absorbance)", "setting": "[3]", "result": "Intestinal and pancreatic trypsin activity was inhibited in a dose-dependent manner by two specific trypsin inhibitors from soybean and chicken egg white, respectively"}]}
